Experimental data reported in IntAct's records for PubMed 21763312.

B1: Protein virB8 (Agrobacterium tumefaciens (strain C58 / ATCC 33970)), P17798 (parent)
chain: MKGSEYALLVARETLAEHYKEVEAFQTARAKSARRLSKVIAAVATIAVLGNVAQAFTIATMVPLIRLVPVYLWIRPDGTVDSEVSVSRLPATQEEAVVNASLWEYVRLRESYDADTAQYAYDLVSNFSAPMVRQNYQQFFNYPNPTSPQVILGKHGRLEVEHIASNDVTPGVQQIRYKRTLIVDGKMPMASTWTATVRYEKVTSLPGRLRLTNPGGLVVTSYQTSEDTVSNAGHSEP
partner: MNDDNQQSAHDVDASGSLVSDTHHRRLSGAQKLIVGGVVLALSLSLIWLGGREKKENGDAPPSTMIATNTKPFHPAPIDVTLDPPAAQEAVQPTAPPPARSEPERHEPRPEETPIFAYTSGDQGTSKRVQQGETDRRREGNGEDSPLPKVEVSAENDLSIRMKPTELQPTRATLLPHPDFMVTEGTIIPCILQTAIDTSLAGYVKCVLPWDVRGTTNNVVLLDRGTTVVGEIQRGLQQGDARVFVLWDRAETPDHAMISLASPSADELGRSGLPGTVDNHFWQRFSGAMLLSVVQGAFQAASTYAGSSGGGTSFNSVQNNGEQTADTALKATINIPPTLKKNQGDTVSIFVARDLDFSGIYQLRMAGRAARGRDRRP

Variants of: B1
Settings: with virba_agrfc virB10, P17800

Variant	effect of a mutation on the interaction
MKGSEYALLVARETLAEHYKEVEAFQTARAKSARRLSKVIAAVATIAVLGNVAQWFTIATMVPLIRLVPVYLWIRPDGTVDSEVSVSRLPATQEEAVVNASLWEYVRLRESYDADTAQYAYDLVSNFSAPMVRQNYQQFFNYPNPTSPQVILGKHGRLEVEHIASNDVTPGVQQIRYKRTLIVDGKMPMASTWTATVRYEKVTSLPGRLRLTNPGGLVVTSYQTSEDTVSNAGHSEP [A55W]	increasing interaction
